Measurements: patent US6858210B1, “Therapeutic and diagnostic domain 1 β2GPI polypeptides and methods of using same” (La Jolla Pharmaceutical Co., priority 1998, dated 2005)
Read-outs that look alike come from different tables or passages of the source.

Key:
[1] = system: affinity purified β2GPI-dependent antiphospholipid antibody; experiment: Competitive inhibition ELISA: recombinant β2GPI proteins compete for antibody binding to coated full length recombinant β2GPI; set-up: species or system human; settings: for IC50: read-out: 50% (concentration to give 50% inhibition)
Outline: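 Wells coated with full-length recombinant β2GPI (10 μg/ml, pH 9.5) and milk-blocked. Serially diluted recombinant β2GPI proteins were co-incubated with a fixed concentration of patient antibody for 1 h at 37 °C. Bound IgG detected with alkaline phosphatase anti-human IgG at OD550; percent inhibition is background-corrected against inhibitor-free wells.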

rabbit anti-β2GPI = experiment: Direct binding ELISA, nickel chelate-coated wells, rabbit antibody; settings: O.D. at 550 nm
Outline: (§1)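 His-tagged recombinant β2GPI mutants captured on nickel chelate wells in serial dilution (2 h, room temperature), no anionic phospholipid; GST-6his as negative control. Affinity-purified patient antibodies (11 patients) or rabbit anti-β2GPI detected by alkaline phosphatase anti-IgG, OD 550 nm.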

[2] = system: affinity purified β2GPI-dependent antiphospholipid antibody; experiment: Direct binding ELISA, nickel chelate-coated wells charged with recombinant β2GPI proteins (no cardiolipin); set-up: species or system human; settings: O.D. at 550 nm
Outline: as §1

B1: -2345: recombinant β2GPI deletion mutant with domains 2-5 (protein)
chain: GRTPRVCPFAGILENGAVRYTTFEYPNTISFSCNTGFYLNGADSAKCTEEGKWSPELPVCAPIICPPPSIPTFATLRVYKPSAGNNSLYRDTAVFECLPQHAMFGNDTITCTTHGNWTKLPECREVKCPFPSRPDNGFVNYPAKPTLYYKDKATFGCHDGYSLDGPEEIECTKLGNWSAMPSCKASCKLPVKKATVVYQGERVKIQEKFKNGMLHGDKVSFFCKNKEKKCSYTEDAQCIDGTIEVPKCFKEHSSLAFWKTDASDVKPCGHHHHHH
[1]; Ab 6203
  Max (maximum inhibition observed at concentrations tested): 10%
  IC50: > 57 µM
[1]; Ab 6501
  Max (maximum inhibition observed at concentrations tested): 20%
  IC50: > 57 µM
[1]; Ab 6509
  Max (maximum inhibition observed at concentrations tested): 20%
  IC50: > 16 µM
[1]; Ab 6626
  Max (maximum inhibition observed at concentrations tested): 18%
  IC50: > 57 µM
[1]; Ab 6632
  Max (maximum inhibition observed at concentrations tested): 20%
  IC50: > 57 µM
[1]; Ab 6641
  Max (maximum inhibition observed at concentrations tested): 20%
  IC50: > 16 µM
[1]; Ab 6644
  Max (maximum inhibition observed at concentrations tested): 10%
  IC50: > 57 µM
[1]; Ab 6652
  Max (maximum inhibition observed at concentrations tested): 40%
  IC50: > 16 µM
[1]; Ab 6701
  Max (maximum inhibition observed at concentrations tested): 10%
  IC50: > 16 µM
[1]; Ab 7008
  Max (maximum inhibition observed at concentrations tested): 20%
  IC50: > 57 µM
[1]; Ab 7015
  Max (maximum inhibition observed at concentrations tested): 10%
  IC50: > 57 µM
[1]; Ab 7101
  Max (maximum inhibition observed at concentrations tested): 5%
  IC50: > 57 µM
[1]; Ab 7104
  Max (maximum inhibition observed at concentrations tested): 10%
  IC50: > 57 µM
Rabbit anti-β2GPI
  Maximum O.D.: 1.873
[2]; Ab 6203
  Maximum O.D.: 0.074
[2]; Ab 6501
  Maximum O.D.: 0.018
[2]; Ab 6626
  Maximum O.D.: 0.008
[2]; Ab 6632
  Maximum O.D.: 0.031
[2]; Ab 6641
  Maximum O.D.: 0.045
[2]; Ab 6644
  Maximum O.D.: 0.041
[2]; Ab 6652
  Maximum O.D.: 0.008
[2]; Ab 6701
  Maximum O.D.: 0.002
[2]; Ab 7008
  Maximum O.D.: 0.019
[2]; Ab 7015
  Maximum O.D.: 0.114
[2]; Ab 7101
  Maximum O.D.: 0.056
